Here are results for three molecules from US20210371503A1 (UNIVERSITY OF COLOGNE, published 2021).

Where two headings read alike, the source gives them in different places.

Assay [1] has as its target T1, receptor-binding domain (RBD) of the spike (S) protein of SARS-CoV-2 (SARS-CoV-2, UniProt P0DTC2 319-541).
The target of assay [2] is T1, receptor-binding domain (RBD) of the …. As to the kind of experiment: ELISA, coated RBD [cont'd]. (In an ELISA, binding on a coated surface is turned into a signal by an enzyme label.)
Assay [3] concerns the target S1 (truncated S1 subunit). As to the kind of experiment: ELISA, coated truncated S1 [cont'd].
For assay [4], the target named is T1, receptor-binding domain (RBD) of the …. The assay is described as follows: assay not stated; row Binding Affinity Spike RBD.
Assay [5] shares this target. This is another data set of the same source.
Assay [6] has the same target. As to the kind of experiment: ELISA, coated RBD [cont'd]. This is another data set of the same source.
Assay [7] addresses S1 (truncated S1 subunit). As to the kind of experiment: ELISA, coated truncated S1 [cont'd]. This is another data set of the same source.

B1: MnC4t2p2_A4 (antibody, V domains shown)
VH: QVQLVQSGSELKKPGASVKISCKASGYIFINYAMNWVRQAPGQGLEWMGWINTNTGNPTYAQDFTGRFVFSLDTSLSTAYLQISSLEAEDTAVYYCAKIGSRNSLGVWGQGTLVTVSA
VL: EIVLTQSPGTLSLSPGERATLSCRASHSVDRSYLAWYQQKPGLAPRLLIYGASSRATGIPDRFSGSGSGTDFTLTISRLEPEDFALYYCQHFGTSSVTFGRGTRLEIK
The Kd is the equilibrium constant for the complex coming apart. By EC50 is commonly meant the concentration needed to bring the measured effect to its halfway point. Read a high EC50 as lower potency in that assay. B1: the affinity in assay [1], expressed as Kd, was 14 nM. Also, the EC50 in assay [2] and in assay [3] was under 100 µg/mL throughout.

B2: DZIF-10c (antibody, V domains shown)
VH: QVQLVESGGGVVQPGRSLRLSCAATGFTFRRYGMHWVRQAPGKGLEWVAGILFDGSNKYYVDSVKGRFTISRDSSRNTLYLQLNSLRREDTAVYYCAKGGDYEWELLESWGQGTLVTVSS
VL: DIQMTQSPSTVSASVGDRVTITCRASQSIDNWLAWYQEKPGKAPKVLIYKASSLESGVPSRFSGRGSGTEFTLTISSLQPGDFATYYCQHYHSFPLTFGGGTKVDIKR
notes: also called HbnC3t1p1_F4(-K); EX14870
Turning to B2, in assay [4], the Kd worked out at 2 nM.

B3: MnC4t1p1_A11 (antibody, V domains shown)
VH: EVQLVESGGGLVQPGGSLRLSCAASGFTFSSYSMNWVRQAPGKGLEWVSYISSSSNTRYYTDSVMGRFTISRDNAKNSLFLQMNSLRAEDTAVYYCASSKGFCSGGSCSDYWGQGTLVTVSS
VL: EIVLTQSPGTLSLSPGERATLSCRASQSVSSSYLAWYQQKPGQAPRLLIYGVSSRATGIPDRFSGSGSGTDFTLTISRLEPEDFVVYYCHQYGSSPWTFGQGTKVEIK
Molecule B3 came in with a Kd in assay [5] of 2000 nM. Besides, the EC50 in assay [6] and in assay [7] was under 100 µg/mL throughout.
